Laboratory results: patent US20160200782A1

Key:
Assay in all cases: cell-based or functional assay
AMPKa1(h) (human) = AMPKa1(h) (human) (UniProt Q13131)
Ab1(Y253F)(h) (human) = Ab1(Y253F)(h) (human) (UniProt P00519)
BTK(R28H)(h) (human) = BTK(R28H)(h) (human) (UniProt Q06187)
CDK1/cyclinB(h) (human) = CDK1/cyclinB(h) (human) (UniProt P06493)
CDK3/cyclinE(h) (human) = CDK3/cyclinE(h) (human) (UniProt Q00526)
CDK5/p35(h) (human) = CDK5/p35(h) (human) (UniProt Q00535)
CDK6/cyclinD3(h) (human) = CDK6/cyclinD3(h) (human) (UniProt Q00534)
[1] = biological target: CDK7/cyclinH/MAT1(h) (human) (UniProt P50613)
CaMKIV(h) (human) = CaMKIV(h) (human) (UniProt Q16566)
CaMKIδ(h) (human) = CaMKIδ(h) (human) (UniProt Q8IU85)
DAPK2(h) (human) = DAPK2(h) (human) (UniProt Q9UIK4)
EGFR(T790M)(h) (human) = EGFR(T790M)(h) (human) (UniProt P00533)
EGFR(h) (human) = EGFR(h) (human) (UniProt P00533)
EphA3(h) (human) = EphA3(h) (human) (UniProt P29320)
EphA7(h) (human) = EphA7(h) (human) (UniProt Q15375)
EphB1(h) (human) = EphB1(h) (human) (UniProt P54762)
ErbB4(h) (human) = ErbB4(h) (human) (UniProt Q15303)
FGFR1(h) (human) = FGFR1(h) (human) (UniProt P11362)
Flt4(h) (human) = Flt4(h) (human) (UniProt P35916)
HIPK3(h) (human) = HIPK3(h) (human) (UniProt Q9H422)
Hck(h) activated (human) = Hck(h) activated (human) (UniProt P08631)
IKKα(h) (human) = IKKα(h) (human) (UniProt O15111)
IKKβ(h) (human) = IKKβ(h) (human) (UniProt O14920)
IRAK1(h) (human) = IRAK1(h) (human) (UniProt P51617)
IRR(h) (human) = IRR(h) (human) (UniProt P14616)
Itk(h) (human) = Itk(h) (human) (UniProt Q08881)
JAK2(h) (human) = JAK2(h) (human) (UniProt O60674)
JNK2α2(h) (human) = JNK2α2(h) (human) (UniProt P45984)
MLCK(h) (human) = biological target: MLCK(h) (human)
MLK1(h) (human) = MLK1(h) (human) (UniProt P80192)
MSK2(h) (human) = MSK2(h) (human) (UniProt O75676)
MSSK1(h) (human) = MSSK1(h) (human) (UniProt Q9UPE1)
Met(Y1248H)(h) (human) = Met(Y1248H)(h) (human) (UniProt P08581)
PAK4(h) (human) = PAK4(h) (human) (UniProt O96013)
PAK5(h) (human) = PAK5(h) (human) (UniProt Q9P286)
PDGFRα(h) (human) = PDGFRα(h) (human) (UniProt P16234)
PDGFRβ(h) (human) = PDGFRβ(h) (human) (UniProt P09619)
PKBβ(h) (human) = PKBβ(h) (human) (UniProt P31751)
PKCµ(h) (human) = PKCµ(h) (human) (UniProt Q15139)
PKCε(h) (human) = PKCε(h) (human) (UniProt Q02156)
PKCτ(h) (human) = biological target: PKCτ(h) (human)
PKG1β(h) (human) = PKG1β(h) (human) (UniProt Q13976)
Ret(V804L)(h) (human) = Ret(V804L)(h) (human) (UniProt P07949)
Rse(h) (human) = Rse(h) (human) (UniProt Q06418)
SAPK2a(T106M)(h) (human) = SAPK2a(T106M)(h) (human) (UniProt Q16539)
SAPK3(h) (human) = SAPK3(h) (human) (UniProt P53778)
Syk(h) (human) = Syk(h) (human) (UniProt P43405)
TAO1(h) (human) = TAO1(h) (human) (UniProt Q7L7X3)
TAO2(h) (human) = TAO2(h) (human) (UniProt Q9UL54)
TAO3(h) (human) = TAO3(h) (human) (UniProt Q9H2K8)
TSSK1(h) (human) = TSSK1(h) (human) (UniProt Q9BXA7)
TrkB(h) (human) = TrkB(h) (human) (UniProt Q16620)
ULK3(h) (human) = ULK3(h) (human) (UniProt Q6PHR2)
WNK2(h) (human) = WNK2(h) (human) (UniProt Q9Y3S1)
cKit(V654A)(h) (human) = cKit(V654A)(h) (human) (UniProt P10721)
cKit(h) (human) = cKit(h) (human) (UniProt P10721)

FGFR1(h) (human), sequence (P11362 456-765 limits assumed): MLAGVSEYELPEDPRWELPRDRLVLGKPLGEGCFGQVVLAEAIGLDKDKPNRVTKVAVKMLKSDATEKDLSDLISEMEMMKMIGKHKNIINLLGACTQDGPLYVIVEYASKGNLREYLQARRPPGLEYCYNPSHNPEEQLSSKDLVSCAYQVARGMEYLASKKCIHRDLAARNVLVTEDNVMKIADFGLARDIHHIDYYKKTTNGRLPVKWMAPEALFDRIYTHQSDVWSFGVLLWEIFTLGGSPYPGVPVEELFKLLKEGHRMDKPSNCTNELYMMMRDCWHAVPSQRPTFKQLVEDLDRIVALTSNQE
IRR(h) (human), sequence (P14616 960-1297 limits assumed): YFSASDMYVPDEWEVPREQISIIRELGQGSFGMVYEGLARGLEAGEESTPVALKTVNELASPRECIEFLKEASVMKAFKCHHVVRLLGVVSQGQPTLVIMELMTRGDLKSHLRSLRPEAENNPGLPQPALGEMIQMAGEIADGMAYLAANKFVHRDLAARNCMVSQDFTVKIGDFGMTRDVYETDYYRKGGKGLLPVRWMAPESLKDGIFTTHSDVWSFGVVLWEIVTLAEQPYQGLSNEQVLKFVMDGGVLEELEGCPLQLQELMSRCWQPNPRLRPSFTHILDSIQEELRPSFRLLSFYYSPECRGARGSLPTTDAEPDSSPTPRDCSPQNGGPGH
EphA7(h) (human), sequence (Q15375 577-998 limits assumed): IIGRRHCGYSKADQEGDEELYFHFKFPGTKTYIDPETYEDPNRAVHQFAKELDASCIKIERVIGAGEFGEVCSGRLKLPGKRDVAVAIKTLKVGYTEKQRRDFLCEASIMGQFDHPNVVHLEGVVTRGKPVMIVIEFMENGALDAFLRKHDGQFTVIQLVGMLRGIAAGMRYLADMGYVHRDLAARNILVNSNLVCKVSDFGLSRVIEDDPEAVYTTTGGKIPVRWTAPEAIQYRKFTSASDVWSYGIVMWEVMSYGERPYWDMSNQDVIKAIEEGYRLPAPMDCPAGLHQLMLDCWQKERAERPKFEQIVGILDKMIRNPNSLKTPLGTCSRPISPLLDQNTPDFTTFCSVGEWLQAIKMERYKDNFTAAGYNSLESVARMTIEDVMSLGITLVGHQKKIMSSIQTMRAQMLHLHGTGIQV
TrkB(h) (human), sequence (Q16620 455-822 limits assumed): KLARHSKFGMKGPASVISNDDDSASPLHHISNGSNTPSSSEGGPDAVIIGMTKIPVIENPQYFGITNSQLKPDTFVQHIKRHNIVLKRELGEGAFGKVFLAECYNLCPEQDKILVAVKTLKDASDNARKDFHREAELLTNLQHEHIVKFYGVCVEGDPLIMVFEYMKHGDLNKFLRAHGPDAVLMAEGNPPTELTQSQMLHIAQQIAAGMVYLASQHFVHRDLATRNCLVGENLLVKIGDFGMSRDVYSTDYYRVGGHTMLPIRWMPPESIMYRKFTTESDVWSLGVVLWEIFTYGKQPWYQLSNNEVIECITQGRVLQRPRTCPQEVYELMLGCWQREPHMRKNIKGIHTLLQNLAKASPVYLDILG
IKKβ(h) (human), sequence (O14920 whole entry): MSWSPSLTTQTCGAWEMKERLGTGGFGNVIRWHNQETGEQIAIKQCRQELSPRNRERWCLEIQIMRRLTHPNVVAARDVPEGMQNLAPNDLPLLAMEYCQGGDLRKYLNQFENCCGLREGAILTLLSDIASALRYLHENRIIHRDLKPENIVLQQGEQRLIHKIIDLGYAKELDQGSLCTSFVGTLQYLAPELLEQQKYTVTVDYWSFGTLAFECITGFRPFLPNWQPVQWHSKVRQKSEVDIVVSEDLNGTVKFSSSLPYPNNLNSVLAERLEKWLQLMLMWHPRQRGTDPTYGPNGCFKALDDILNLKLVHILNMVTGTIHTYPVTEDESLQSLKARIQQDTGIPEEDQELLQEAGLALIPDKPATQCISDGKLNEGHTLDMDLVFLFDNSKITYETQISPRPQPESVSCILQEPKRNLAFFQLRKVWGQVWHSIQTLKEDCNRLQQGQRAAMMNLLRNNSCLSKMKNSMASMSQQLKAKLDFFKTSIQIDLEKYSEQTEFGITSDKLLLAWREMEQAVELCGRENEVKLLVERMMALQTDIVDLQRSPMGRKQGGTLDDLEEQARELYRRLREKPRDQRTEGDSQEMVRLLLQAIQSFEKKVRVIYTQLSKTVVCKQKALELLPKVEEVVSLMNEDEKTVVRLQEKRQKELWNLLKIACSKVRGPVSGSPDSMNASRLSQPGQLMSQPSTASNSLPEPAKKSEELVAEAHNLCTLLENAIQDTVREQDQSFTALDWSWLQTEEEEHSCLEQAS
Flt4(h) (human), sequence (P35916 800-1363 limits assumed): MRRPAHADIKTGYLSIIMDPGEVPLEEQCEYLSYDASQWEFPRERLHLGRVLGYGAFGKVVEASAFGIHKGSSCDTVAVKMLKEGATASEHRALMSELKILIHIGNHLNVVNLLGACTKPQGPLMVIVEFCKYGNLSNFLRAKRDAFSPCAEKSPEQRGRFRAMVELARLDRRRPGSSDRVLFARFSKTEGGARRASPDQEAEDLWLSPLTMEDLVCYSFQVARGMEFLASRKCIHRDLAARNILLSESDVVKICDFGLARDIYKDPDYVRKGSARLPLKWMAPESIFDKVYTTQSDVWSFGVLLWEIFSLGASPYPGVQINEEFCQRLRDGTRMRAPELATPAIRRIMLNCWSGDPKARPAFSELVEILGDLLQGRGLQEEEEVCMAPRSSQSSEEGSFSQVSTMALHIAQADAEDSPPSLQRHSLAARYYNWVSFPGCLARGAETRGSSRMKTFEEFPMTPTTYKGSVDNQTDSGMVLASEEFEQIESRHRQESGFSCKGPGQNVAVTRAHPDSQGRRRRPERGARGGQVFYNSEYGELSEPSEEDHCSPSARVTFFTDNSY
Itk(h) (human), sequence (Q08881 whole entry): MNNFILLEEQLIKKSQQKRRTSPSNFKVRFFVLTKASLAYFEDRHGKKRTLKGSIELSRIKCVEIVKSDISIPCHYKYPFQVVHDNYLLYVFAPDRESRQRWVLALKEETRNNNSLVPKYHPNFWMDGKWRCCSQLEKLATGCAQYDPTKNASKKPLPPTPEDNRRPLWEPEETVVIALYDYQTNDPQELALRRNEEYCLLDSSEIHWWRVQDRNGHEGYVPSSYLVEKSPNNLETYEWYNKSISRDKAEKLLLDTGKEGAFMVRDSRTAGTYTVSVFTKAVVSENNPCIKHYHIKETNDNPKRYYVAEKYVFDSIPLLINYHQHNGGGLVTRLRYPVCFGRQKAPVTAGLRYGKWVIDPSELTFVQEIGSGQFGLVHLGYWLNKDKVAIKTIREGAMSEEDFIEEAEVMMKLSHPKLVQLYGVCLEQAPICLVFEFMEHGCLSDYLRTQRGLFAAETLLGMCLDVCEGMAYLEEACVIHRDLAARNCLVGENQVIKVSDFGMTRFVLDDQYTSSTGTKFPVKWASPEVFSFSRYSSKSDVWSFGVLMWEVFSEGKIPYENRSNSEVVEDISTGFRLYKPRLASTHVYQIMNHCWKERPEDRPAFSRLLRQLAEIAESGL
PKCµ(h) (human), sequence (Q15139 whole entry): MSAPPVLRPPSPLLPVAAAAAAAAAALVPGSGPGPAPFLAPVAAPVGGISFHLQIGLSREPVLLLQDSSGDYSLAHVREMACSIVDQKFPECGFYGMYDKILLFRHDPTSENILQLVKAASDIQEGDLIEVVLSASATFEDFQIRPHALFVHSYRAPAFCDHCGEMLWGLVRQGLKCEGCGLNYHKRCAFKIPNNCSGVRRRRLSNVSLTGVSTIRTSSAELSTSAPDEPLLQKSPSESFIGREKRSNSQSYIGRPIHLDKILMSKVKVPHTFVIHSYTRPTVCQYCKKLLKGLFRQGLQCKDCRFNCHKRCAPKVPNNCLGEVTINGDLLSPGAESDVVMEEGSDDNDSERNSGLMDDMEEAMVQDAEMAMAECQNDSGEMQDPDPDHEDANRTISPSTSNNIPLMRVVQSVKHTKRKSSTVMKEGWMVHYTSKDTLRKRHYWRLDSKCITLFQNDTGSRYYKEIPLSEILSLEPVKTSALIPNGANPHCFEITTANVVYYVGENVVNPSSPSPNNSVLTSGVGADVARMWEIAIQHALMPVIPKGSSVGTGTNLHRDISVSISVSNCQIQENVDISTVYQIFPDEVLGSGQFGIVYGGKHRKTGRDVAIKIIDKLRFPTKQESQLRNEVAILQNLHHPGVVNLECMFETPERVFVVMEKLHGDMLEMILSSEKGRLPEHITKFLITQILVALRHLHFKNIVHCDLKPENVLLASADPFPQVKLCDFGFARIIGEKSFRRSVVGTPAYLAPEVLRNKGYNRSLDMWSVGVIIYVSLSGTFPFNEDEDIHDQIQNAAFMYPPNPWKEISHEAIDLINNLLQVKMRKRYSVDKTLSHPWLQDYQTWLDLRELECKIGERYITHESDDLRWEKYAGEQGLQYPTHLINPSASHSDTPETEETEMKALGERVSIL
ULK3(h) (human), sequence (Q6PHR2 whole entry): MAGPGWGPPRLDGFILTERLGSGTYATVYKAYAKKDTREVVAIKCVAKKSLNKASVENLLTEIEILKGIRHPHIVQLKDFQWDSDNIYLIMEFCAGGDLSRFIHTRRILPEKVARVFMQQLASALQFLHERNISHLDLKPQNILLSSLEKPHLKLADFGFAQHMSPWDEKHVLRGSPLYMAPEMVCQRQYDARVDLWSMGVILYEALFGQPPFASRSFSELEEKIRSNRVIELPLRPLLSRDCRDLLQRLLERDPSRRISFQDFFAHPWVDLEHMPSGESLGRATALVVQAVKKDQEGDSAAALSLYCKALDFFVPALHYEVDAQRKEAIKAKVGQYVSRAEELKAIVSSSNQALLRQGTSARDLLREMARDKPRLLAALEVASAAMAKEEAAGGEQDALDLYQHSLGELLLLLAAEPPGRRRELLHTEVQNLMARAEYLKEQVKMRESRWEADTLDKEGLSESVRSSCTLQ

Substance MMI-0500 (peptide) has a % activity (AMPKa1(h) (human)) of 35%, a % activity (Ab1(Y253F)(h) (human)) of 29% and a % activity (BTK(R28H)(h) (human)) of 10%. It also gave a % activity (CDK1/cyclinB(h) (human)) of 57%, a % activity (CDK3/cyclinE(h) (human)) of 8% and a % activity (CDK5/p35(h) (human)) of 59%. The % activity (CDK6/cyclinD3(h) (human)) was 23%, the % activity [1] was 15% and the % activity (CaMKIV(h) (human)) was -1%. For the same substance, the % activity (CaMKIδ(h) (human)) was 0%, the % activity (DAPK2(h) (human)) was 3% and the % activity (EGFR(T790M)(h) (human)) was 70%. For the same substance, the % activity (EGFR(h) (human)) was -1%, the % activity (EphA3(h) (human)) was 33% and the % activity (EphA7(h) (human)) was 189%. The % activity (EphB1(h) (human)) was 37%, the % activity (ErbB4(h) (human)) was 2% and the % activity (FGFR1(h) (human)) was 18%. It also gave a % activity (Flt4(h) (human)) of 73%, a % activity (HIPK3(h) (human)) of 85% and a % activity (Hck(h) activated (human)) of 67%. The % activity (IKKα(h) (human)) was 50%, the % activity (IKKβ(h) (human)) was 71% and the % activity (IRAK1(h) (human)) was 5%. The % activity (IRR(h) (human)) was 10%, the % activity (Itk(h) (human)) was 7% and the % activity (JAK2(h) (human)) was 49%. For the same substance, the % activity (JNK2α2(h) (human)) was 81%, the % activity (MLCK(h) (human)) was 0% and the % activity (MLK1(h) (human)) was 43%. The % activity (MSK2(h) (human)) was 14%, the % activity (MSSK1(h) (human)) was 22% and the % activity (Met(Y1248H)(h) (human)) was 126%. For the same substance, the % activity (PAK4(h) (human)) was 86%, the % activity (PAK5(h) (human)) was 125% and the % activity (PDGFRα(h) (human)) was 40%. For the same substance, the % activity (PDGFRβ(h) (human)) was 40%, the % activity (PKBβ(h) (human)) was 21% and the % activity (PKCµ(h) (human)) was 10%. The % activity (PKCε(h) (human)) was 23%, the % activity (PKCτ(h) (human)) was 7% and the % activity (PKG1β(h) (human)) was 24%. For the same substance, the % activity (Ret(V804L)(h) (human)) was 20%, the % activity (Rse(h) (human)) was 63% and the % activity (SAPK2a(T106M)(h) (human)) was 32%. It also gave a % activity (SAPK3(h) (human)) of 24%, a % activity (Syk(h) (human)) of 5% and a % activity (TAO1(h) (human)) of 24%. It also gave a % activity (TAO2(h) (human)) of 15%, a % activity (TAO3(h) (human)) of 12% and a % activity (TSSK1(h) (human)) of 46%. The % activity (TrkB(h) (human)) was 12%, the % activity (ULK3(h) (human)) was 177% and the % activity (WNK2(h) (human)) was 8%. For the same substance, the % activity (cKit(V654A)(h) (human)) was 223% and the % activity (cKit(h) (human)) was 45%.
